Reference: article PMC4911631

Tests used:
[1] = molecular target: PRX1, recombinant (Chlamydomonas reinhardtii)
[2] = molecular target: PRX1, recombinant (Chlamydomonas reinhardtii); remark: listed apart in the source

Substance | maximal electron transfer rate to PRX1 at saturating Ca2+ against WT CRX (Supplementary Fig. 1b) [1] [fold] | reduction of PRX1 by CRX (NADPH oxidation) without Ca2+ (EGTA added) against with Ca2+ [2] [fold]
calredoxin (CRX) Lys263Ile, recombinant (enzyme) | 3 | –
calredoxin (CRX), wild type, recombinant (enzyme) | – | 10
